Drawing on patent publication US20240116985A1, “STAPLED PEPTIDES AND METHODS THEREOF” (priority 2020, published 2024), this text covers IC50 and EC50 for 33 molecules.

Starred links: 1 amine or outer side, 2 acyl side, 3 side chain; linkers in the order of their positions; H or OH if unused. Positions of bridges follow the written chain, without caps; N, C: chain ends. Non-standard residues stand in square brackets, D forms with d. Primed or numbered codes have the meaning given here. PyrS2″ = (S)-3-amino-1-((pent-4-en-1-yloxy)carbonyl)pyrrolidine-3-carboxylic acid (stapling residue), C=CCCCOC(=O)N1CC[C@@](N[*:1])(C(=O)[*:2])C1; B5(16) = 2-amino-2-(pent-4-en-1-yl)hept-6-enoic acid = 2,2-bis(4-pentenyl)glycine (stitching residue), C=CCCCC(CCCC=C)(N[*:1])C(=O)[*:2]; B5(4) = 2,2-bis(4-pentenyl)glycine = 2-amino-2-(pent-4-en-1-yl)hept-6-enoic acid (stitching residue), C=CCCCC(CCCC=C)(N[*:1])C(=O)[*:2]; B5(5) = 2,2-bis(4-pentenyl)glycine, 2-amino-2-(pent-4-en-1-yl)hept-6-enoic acid (stitching residue), C=CCCCC(CCCC=C)(N[*:1])C(=O)[*:2]; TfeGA = (S)-2-amino-3-((carboxymethyl)(2,2,2-trifluoroethyl)amino)propanoic acid, O=C([C@H](CN(CC(=O)[*:3])CC(F)(F)F)N[*:1])[*:2]; PyrS2 = (S)-3-amino-1-((pent-4-en-1-yloxy)carbonyl)pyrrolidine-3-carboxylic acid, C=CCCCOC(=O)N1CC[C@@](N[*:1])(C(=O)[*:2])C1; (NMe2)GlnR(3) = [NMe2]GlnR, N5,N5-dimethyl-L-glutamine, CN(C)C(=O)CC[C@H](N[*:1])C(=O)[*:2]; B5 = 2-amino-2-(pent-4-en-1-yl)hept-6-enoic acid, C=CCCCC(CCCC=C)(N[*:1])C(=O)[*:2]; Me2Asn = listed as N4-methyl-L-asparagine, CNC(=O)C[C@H](N[*:1])C(=O)[*:2]; Phe(3-COOH) = N[C@@H](Cc1cccc(C(=O)O)c1)C(=O)O; Phe(2-CF3) = N[C@@H](Cc1ccccc1C(F)(F)F)C(=O)O; Phe(2-Cl) = N[C@@H](Cc1ccccc1Cl)C(=O)O; Bta = N[C@@H](Cc1csc2ccccc12)C(=O)O; Lys(iPr) = CC(C)NCCCC[C@H](N)C(=O)O; αAllylPro = C=CC[C@@]1(C(=O)O)CCCN1; tBuAla = CC(C)(C)C[C@H](N)C(=O)O; 3Thi = N[C@@H](Cc1ccsc1)C(=O)O; Cha = N[C@@H](CC1CCCCC1)C(=O)O; Cit = NC(=O)NCCC[C@H](N)C(=O)O; S8 = C=CCCCCCC[C@](C)(N)C(=O)O; Leu(ol) = CC(C)C[C@H](N)CO; hSer = N[C@@H](CCO)C(=O)O; 34ClF = not defined here; Nle = CCCC[C@H](N)C(=O)O; Aib = CC(C)(N)C(=O)O

Assay [1] deals with full-length beta-Catenin (Uniprot ID P35222) (Homo sapiens (Human)) (UniProt P35222). Put plainly: fluorescence polarization competition; 10 nM full-length beta-catenin, 10 nM 5FAM-TCF4(10-53) probe. For orientation: In fluorescence polarisation assays a small probe gives low polarisation when free and higher when bound to something large.
The target is the same in assay [2]. Put plainly: fluorescence polarization competition; full-length beta-catenin with 5FAM-TCF4(10-53) probe as competitor.
Target sequence in this assay (P35222 whole entry): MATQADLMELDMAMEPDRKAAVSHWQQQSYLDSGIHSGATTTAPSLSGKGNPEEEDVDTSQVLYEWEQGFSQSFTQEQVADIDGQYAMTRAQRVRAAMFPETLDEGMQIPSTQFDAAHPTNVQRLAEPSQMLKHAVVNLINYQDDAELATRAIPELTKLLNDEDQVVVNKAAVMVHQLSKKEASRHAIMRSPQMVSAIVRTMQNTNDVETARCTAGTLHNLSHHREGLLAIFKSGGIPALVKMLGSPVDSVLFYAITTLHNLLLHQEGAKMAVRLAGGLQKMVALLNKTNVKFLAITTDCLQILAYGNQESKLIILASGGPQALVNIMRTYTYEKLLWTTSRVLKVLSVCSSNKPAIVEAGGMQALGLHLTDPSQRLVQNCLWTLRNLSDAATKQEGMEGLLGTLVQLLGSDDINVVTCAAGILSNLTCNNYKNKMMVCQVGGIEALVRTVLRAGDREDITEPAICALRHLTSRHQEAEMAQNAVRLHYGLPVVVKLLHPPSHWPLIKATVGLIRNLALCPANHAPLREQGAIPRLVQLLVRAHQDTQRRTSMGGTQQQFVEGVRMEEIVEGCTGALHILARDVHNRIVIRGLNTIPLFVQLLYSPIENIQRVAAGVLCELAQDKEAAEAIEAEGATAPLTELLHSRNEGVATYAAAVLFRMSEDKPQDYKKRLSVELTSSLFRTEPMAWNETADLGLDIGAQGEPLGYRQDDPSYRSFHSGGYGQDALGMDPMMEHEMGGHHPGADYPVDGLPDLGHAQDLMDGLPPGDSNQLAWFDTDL
Assay [3] has the same target. Put plainly: fluorescence polarization competition; peptide titrated against 10 nM full-length beta-catenin + 10 nM 5FAM-TCF4(10-53) probe.
Target sequence in this assay (P35222 whole entry): as above
The target is the same in assay [4]. Nature of the assay: FP competition: displacement of 5FAM-TCF4(10-53) from full-length beta-catenin.
Target sequence in this assay (P35222 whole entry): as above
Assay [5] has the same target. Put plainly: fluorescence polarization competition; full-length beta-catenin, 5FAM-TCF4(10-53) probe as competitor.
Target sequence in this assay (P35222 2-781 limits assumed): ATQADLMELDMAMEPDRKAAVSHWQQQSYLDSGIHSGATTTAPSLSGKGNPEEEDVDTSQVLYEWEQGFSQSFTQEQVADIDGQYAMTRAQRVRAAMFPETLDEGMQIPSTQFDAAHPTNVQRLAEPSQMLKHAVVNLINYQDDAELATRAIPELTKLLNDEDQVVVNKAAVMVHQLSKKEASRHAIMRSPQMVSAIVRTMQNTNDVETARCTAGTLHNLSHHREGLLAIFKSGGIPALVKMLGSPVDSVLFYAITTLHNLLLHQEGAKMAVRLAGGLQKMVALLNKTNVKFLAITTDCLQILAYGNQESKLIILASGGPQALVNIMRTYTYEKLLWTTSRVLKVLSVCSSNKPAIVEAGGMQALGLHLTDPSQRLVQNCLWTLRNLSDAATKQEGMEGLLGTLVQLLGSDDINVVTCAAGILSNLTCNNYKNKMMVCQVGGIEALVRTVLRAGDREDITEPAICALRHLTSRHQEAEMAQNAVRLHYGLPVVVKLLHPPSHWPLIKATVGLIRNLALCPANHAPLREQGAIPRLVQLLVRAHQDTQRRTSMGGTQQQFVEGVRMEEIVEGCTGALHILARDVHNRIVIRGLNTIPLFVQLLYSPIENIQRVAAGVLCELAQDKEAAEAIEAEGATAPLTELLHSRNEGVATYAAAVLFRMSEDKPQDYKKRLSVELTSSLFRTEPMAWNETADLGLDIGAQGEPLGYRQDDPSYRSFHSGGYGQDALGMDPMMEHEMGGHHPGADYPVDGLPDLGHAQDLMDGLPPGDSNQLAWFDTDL

Regarding Ac-[αAllylPro]D[tBuAla][B5(4)]D[Phe(3-COOH)][Aib]AF[Nle][PyrS2″][3Thi][Bta][(NMe2)GlnR(3)]-NH2 (staple 1-4, 4-11) [I-2551], the IC50 in assay [1] turned out to be 8 nM.
Still for that read-out and setting: as for Ac-[αAllylPro]N[tBuAla][B5(4)]DQ[Lys(iPr)]AFL[PyrS2]F[Bta][Lys(iPr)]-NH2 (staple 1-4, 4-11) [I-1645], the figure is 940 nM.
As for Ac-[αAllylPro]D[Cha][B5(16)]DEAAFN[S8]F[Bta]Q-NH2 (staple 1-4, 4-11; also: later-eluting staple isomer composition) [I-620], the IC50 in assay [2] turned out to be 35 nM. The EC50 in assay [3] was determined as 35 nM.
As for Ac-[αAllylPro]N[tBuAla][B5(5)]DQ[Lys(iPr)]AFL[PyrS2″][Cha][Bta]Q-NH2 (staple 1-4, 4-11) [I-1651], the IC50 in assay [1] was found to be 3970 nM.
The same measure, in the same setting: with Ac-[αAllylPro]N[tBuAla][B5(4)]DQ[Lys(iPr)]AFL[PyrS2]F[Bta][tBuAla]-NH2 (staple 1-4, 4-11) [I-1644] the figure was 10000 nM.
The molecule Ac-[αAllylPro]D[Cha][B5(4)]DEAAFN[S8]F[Bta]Q-NH2 (staple 1-4, 4-11; also: earlier-eluting staple isomer) [I-619] yielded an IC50 in assay [2] of 44 nM. In assay [3], the EC50 is 44 nM.
Molecule Ac-[αAllylPro]D[tBuAla][B5(4)]D[Phe(3-COOH)]SAFL[PyrS2″][3Thi][Bta][tBuAla]-NH2 (staple 1-4, 4-11) [I-2195] returned an IC50 in assay [1] of 62 nM.
As for Ac-[αAllylPro][hSer][tBuAla][B5(5)]DDAAFN[PyrS2″][3Thi][Bta]Q-NH2 (staple 1-4, 4-11) [I-1228], the EC50 in assay [4] came out at 100 nM. The molecule further came in with an IC50 in assay [5] of 100 nM.
In assay [1], Ac-[αAllylPro]D[tBuAla][B5(4)]D[Phe(3-COOH)]AAFF[PyrS2″][Phe(2-CF3)][Bta][Me2Gln]-NH2 (staple 1-4, 4-11) [I-2534] had an IC50 of 21 nM.
The same measure, in the same setting: with Ac-[αAllylPro]D[tBuAla][B5(4)]D[Phe(3-COOH)][Nle]AFL[PyrS2″][3Thi][Bta][tBuAla]-NH2 (staple 1-4, 4-11) [I-2193] the figure was 164 nM; with Ac-[αAllylPro]D[tBuAla][B5(4)]D[Phe(3-COOH)][Me2Asn]AFL[PyrS2″][3Thi][Bta][tBuAla]-NH2 (staple 1-4, 4-11) [I-2196], 41 nM.
Still for that read-out and setting: as for Ac-[αAllylPro]D[tBuAla][B5(4)]D[Phe(3-COOH)]AAFF[PyrS2″][Phe(2-CF3)][Bta][MorphGln]-NH2 (staple 1-4, 4-11) [I-2543], the figure is 37 nM; as for Ac-[αAllylPro]D[tBuAla][B5(4)]D[Phe(3-COOH)][Aib]AF[Nle][PyrS2″][3Thi][Bta][(NHEt)GlnR]-NH2 (staple 1-4, 4-11) [I-2552], 12 nM; as for Ac-[αAllylPro]N[tBuAla][B5(4)]DQ[Lys(iPr)]AFL[PyrS2]F[Bta]K-NH2 (staple 1-4, 4-11) [I-1643], 822 nM.
In assay [4], Ac-[αAllylPro]D[tBuAla][B5(4)]D[TfeGA]AAFT[PyrS2″][Phe(2-Cl)][Bta][Leu(ol)] (staple 1-4, 4-11) [I-1243] yielded an EC50 of 82 nM. The molecule further yielded an IC50 in assay [5] of 82 nM.
With Ac-[αAllylPro]N[tBuAla][B5(4)]DQ[Lys(iPr)]A[Cha]L[PyrS2]F[Bta]Q-NH2 (staple 1-4, 4-11) [I-1649], in assay [1], the IC50 is 2480 nM.
As to Ac-[αAllylPro]DL[B5(4)]DEAAF[Cit][S8]F[Bta]Q-NH2 (staple 1-4, 4-11) [I-621], in assay [2], the half-maximal inhibitory concentration (IC50) was determined as 58 nM. The EC50 in assay [3] turned out to be 58 nM.
Consider Ac-[αAllylPro]N[tBuAla][B5(5)]DQ[Lys(iPr)]AF[Lys(iPr)][PyrS2″]F[Bta][Lys(iPr)]-NH2 (staple 1-4, 4-11) [I-1654], for which, in assay [1], the IC50 amounted to 2130 nM.
On to Ac-[αAllylPro]DL[B5(4)]DEAAFN[S8]F[Bta]-NH2 (staple 1-4, 4-11; also: later-eluting staple isomer) [I-625], for which the IC50 in assay [2] is 119 nM. The EC50 in assay [3] worked out at 119 nM.
In turn, Ac-[αAllylPro]DL[B5(4)]DEAAFN[S8]F[Bta]-NH2 (staple 1-4, 4-11; also: earlier-eluting staple isomer) [I-624] showed an IC50 in assay [2] of 273 nM. Further, in assay [3], the EC50 stood at 273 nM.
Take Ac-[αAllylPro]D[tBuAla][B5(4)]D[Phe(3-COOH)][Nle]AFL[PyrS2″][3Thi][Bta]V-NH2 (staple 1-4, 4-11) [I-2189]: the IC50 in assay [1] was 83 nM.

B1: I-2182 (peptide)
peptide: Ac-[αAllylPro]D[tBuAla][B5(4)]DDAAFN[PyrS2″][3Thi][34ClF]Q-NH2
modifications: staple 1-4, 4-11; reading uncertain; also: printed as Ac-PL3-Asp-Npg-B5-Asp-Asp-Ala-Ala-Phe-Asn-PyrS2-3Thi-34C1F-Gln-NH2
Regarding B1, in assay [1], the IC50 worked out at 5 nM.
On the same count and under the same terms, with Ac-[αAllylPro]N[tBuAla][B5(4)]DQ[Lys(iPr)]AFL[PyrS2]F[Bta][hSer]-NH2 (staple 1-4, 4-11) [I-1646] the figure was 640 nM.
On the same count and under the same terms, with Ac-[αAllylPro]N[tBuAla][B5(5)]DQ[Lys(iPr)]AF[Lys(iPr)][PyrS2″]F[Bta]Q-NH2 (staple 1-4, 4-11) [I-1653] the figure was 903 nM; with Ac-[αAllylPro]N[tBuAla][B5(5)]DQ[Lys(iPr)]AFL[PyrS2″]F[Bta][Cha]-NH2 (staple 1-4, 4-11) [I-1652], 10000 nM.
Molecule Ac-[αAllylPro]D[Cha][B5]DEAAFN[S8]F[Bta]H-NH2 (staple 1-4, 4-11) [I-615] came in with an IC50 in assay [2] of 50 nM. In addition, the EC50 in assay [3] came out at 50 nM.
Ac-[αAllylPro]D[tBuAla][B5(4)]D[Phe(3-COOH)][Me2Asn]AFL[PyrS2″][3Thi][Bta]V-NH2 (staple 1-4, 4-11) [I-2191] displayed an IC50 in assay [1] of 16 nM.
In turn, Ac-[αAllylPro]D[tBuAla][B5(4)]D[Phe(3-COOH)]QAFL[PyrS2″][3Thi][Bta][tBuAla]-NH2 (staple 1-4, 4-11) [I-2192] gave an IC50 in assay [1] of 22 nM.
The same measure, in the same setting: with Ac-[αAllylPro]D[tBuAla][B5(4)]D[Phe(3-COOH)]AAFL[PyrS2″][Phe(2-CF3)][Bta][MorphGln]-NH2 (staple 1-4, 4-11) [I-2541] the figure was 21 nM; with Ac-[αAllylPro]N[tBuAla][B5(5)]DQ[Lys(iPr)]AF[Cha][PyrS2]F[Bta]Q-NH2 (staple 1-4, 4-11) [I-1650], 1680 nM.
With Ac-[αAllylPro]DL[B5]DEAAF[Cit][S8]F[Bta]H-NH2 (staple 1-4, 4-11) [I-616], the IC50 in assay [2] was determined as 108 nM. Further, the EC50 in assay [3] came to 108 nM.
Ac-[αAllylPro][hSer][tBuAla][B5(5)]DDAAFL[PyrS2″][3Thi][Bta]Q-NH2 (staple 1-4, 4-11) [I-1229] returned an EC50 in assay [4] of 134 nM. The same molecule came in with an IC50 in assay [5] of 134 nM.
In assay [1], Ac-[αAllylPro]D[tBuAla][B5(4)]D[Phe(3-COOH)][Aib]AFL[PyrS2″][3Thi][Bta][tBuAla]-NH2 (staple 1-4, 4-11) [I-2194] displayed an IC50 of 91 nM.

The term IC50 denotes the concentration needed to halve the response being measured. Low values mean higher potency, high ones lower potency. By EC50 is commonly meant the concentration needed to bring the measured effect to its halfway point.
